{
  "source": "paper PMC3887093",
  "molecular_target": "Plasmodium vivax Duffy binding protein region II (DBP-RII), recombinant (Plasmodium vivax) (UniProt P22290)",
  "sequence (P22290 211-525)": "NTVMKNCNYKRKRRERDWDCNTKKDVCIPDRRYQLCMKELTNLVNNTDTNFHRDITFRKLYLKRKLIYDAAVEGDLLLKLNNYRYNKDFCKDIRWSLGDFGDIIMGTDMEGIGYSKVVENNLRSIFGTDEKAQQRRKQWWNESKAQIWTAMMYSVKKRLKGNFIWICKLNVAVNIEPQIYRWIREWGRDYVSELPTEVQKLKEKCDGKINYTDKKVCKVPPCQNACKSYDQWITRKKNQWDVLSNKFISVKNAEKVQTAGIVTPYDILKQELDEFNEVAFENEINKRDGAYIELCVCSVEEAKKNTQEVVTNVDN",
  "assay": "ITC; DARC1-60 at 1.3 mM titrated into 1.4 mL of 130 µM DBP-RII; PBS; 10°C; independent two-site binding model after subtraction of both controls; molar ratios in monomers of DBP-RII",
  "data": [
    {"substance": "DARC N-terminal ectodomain, residues 1-60, unsulfated, three cysteines mutated to alanine (from UniProt Q16570 1-60) (domain or fragment)", "values": [
      {"measurement": "Kd1 (first binding event, heterotrimer; two independent sites fit)", "value": 2180, "unit": "nM"},
      {"measurement": "Kd2 (second binding event, heterotetramer; two independent sites fit)", "value": 88.5, "unit": "nM"},
      {"measurement": "Kd of the first binding event (two independent sites fit)", "value": 2180, "unit": "nM"},
      {"measurement": "dH1 (first binding event)", "value": -2.66, "unit": "kcal/mol"},
      {"measurement": "dH2 (second binding event)", "value": -3.34, "unit": "kcal/mol"},
      {"measurement": "n1 (first binding event, per monomer of DBP-RII)", "value": 0.44},
      {"measurement": "n2 (second binding event, per monomer of DBP-RII)", "value": 0.5},
      {"measurement": "stoichiometry N", "value": 1}
    ]}
  ]
}
